According to patent US7285408B2, “Crystalline form of an n231 mutant catalytic domain of ADAM33 and methods of use thereof” (Schering Corporation, priority 2002, dated 2007):

Experiments:
[1] = Storage stability of purified protein (N-terminal sequencing, mass spectrometry, enzymatic assay); type: physicochemical; details: 4° C.; expression induced with 0.5 mM CuSO4, purified as complex of pro and catalytic domains
Description: The Ni-NTA column was washed with 15-20 CV of buffer C until a stable baseline was achieved, and the protein was eluted with 250 mM imidazole in buffer C. The eluted protein was concentrated to 5-15 mg/ml, and then applied to a SUPERDEX-75 gel filtration column equilibrated with buffer GF (25 mM HEPES, pH 7.5, 150 mM NaCl, 10% glycerol, 50 mM imidazole). Fractions corresponding to the monomer of ADAM33 were pooled, and diluted to 0.3 mg/ml, flash-frozen in liquid nitrogen, and stored at −80° C. […] When used for crystallography, the frozen protein was thawed on ice and concentrated to 10 mg/ml using Ultrafree®-15 Centrifugation Filter Device (Millipore, Bedford, Mass.). The thawed protein was immediately subjected to crystallization trials. Using this protocol a total of 1-9 mg of ADAM33 N231Q comprising the amino acid sequence of SEQ ID NO: 8 and SEQ ID NO: 36 (the C-Terminal Ser-Gly His6 Tag) was obtained from 1 liter of conditioned medium. 5 mM CaCl2 is preferably included throughout the purification process. It is also preferred that 5 mM CaCl2 is retained in the storage buffer.
After designing an appropriate DNA construct, the expression of the ADAM33 catalytic domain in an eukaryotic cell line needed to be optimized. […] However, under these induction conditions, Cu^2+ readily binds to the C-terminal His6 Tag. […]

[2] = Thermal denaturation monitored by circular dichroism (220 nm) as a function of temperature and CaCl2 concentration; type: physicochemical
Description: The effect of CaCl2 on the stability of the ADAM33 N231Q catalytic domain as determined by thermal denaturation: The effect of the concentration of CaCl2 on the retention of the secondary structure of the ADAM33 N231Q catalytic domain was monitored by circular dichroism (λ220 nm) as a function of temperature. A parallel study was performed replacing the CaCl2 with NaCl to control for the effect of the corresponding increase in ionic strength. The ADAM33 N231Q catalytic domain was purified as described above and then diluted to 0.2 mg/ml. The sample was then dialyzed against 25 mM Hepes, pH 7.5, 5% glycerol overnight. The temperature dependent protein denaturation was performed using a JASCO 810 spectropolarimeter under the following conditions: • Protein concentration: 0.2 mg/ml (based on a BioRad Protein Assay) • Cell length: 0.1 cm • Monitor wavelength: 220 nm • Temperature slope: 2° C./min • Measurement range: 20-80° C.
Therefore, greater than 10 μM CaCl2, and preferably between 0.3-100 mM CaCl2 should be included to maintain the stability of this protein.

B1: wild type (WT) ADAM33: ADAM33 protein fragment with pre, pro and wild type catalytic domain and Ser-Gly-His6 Tag expressed in Drosophila S2 cells (SEQ ID NO: 2) (protein)
chain: MKLCILLAVVAFVGLSLGRSPWPGVPLQGHIPGQPVTPHWVLDGQPWRTVSLEEPVSKPDMGLVALEAEGQELLLELEKNHRLLAPGYIETHYGPDGQPVVLAPNHTDHCHYQGRVRGFPDSWVVLCTCSGMSGLITLSRNASYYLRPWPPRGSKDFSTHEIFRMEQLLTWKGTCGHRDPGNKAGMTSLPGGPQSRGRREARRTRKYLELYIVADHTLFLTRHRNLNHTKQRLLEVANYVDQLLRTLDIQVALTGLEVWTERDRSRVTQDANATLWAFLQWRRGLWAQRPHDSAQLLTGRAFQGATVGLAPVEGMCRAESSGGVSTDHSELPIGAAATMAHEIGHSLGLSHDPDGCCVEAAAESGGCVMAAATGHPFPRVFSACSRRQLRAFFRKGGGACLSNAP
modifications: Ser-Gly-His6 tag; homo sapiens
- stability of purified protein [1]: labile

B2: ADAM33 N231Q: modified human ADAM33 catalytic domain, Asn231 replaced by glutamine (SEQ ID NO: 8) with C-terminal Ser-Gly His6 Tag (protein)
chain: EARRTRKYLELYIVADHTLFLTRHRNLQHTKQRLLEVANYVDQLLRTLDIQVALTGLEVWTERDRSRVTQDANATLWAFLQWRRGLWAQRPHDSAQLLTGRAFQGATVGLAPVEGMCRAESSGGVSTDHSELPIGAAATMAHEIGHSLGLSHDPDGCCVEAAAESGGCVMAAATGHPFPRVFSACSRRQLRAFFRKGGGACLSNAPSGHHHHHH
modifications: C-terminal Ser-Gly His6 tag; homo sapiens
- ΔDenaturation Temp. ([2]; CaCl2 0 mM): 0.0 °C
- Denaturation Temp. ([2]; CaCl2 0 mM, 0.2 mg/ml protein, 25 mM Hepes pH 7.5, 5% glycerol): 43.5 °C
- Denaturation Temp. ([2]; CaCl2 0.003 mM): 50.6 °C
- ΔDenaturation Temp. ([2]; CaCl2 0.003 mM vs 0 mM): 7.1 °C
- Denaturation Temp. ([2]; CaCl2 0.03 mM): 52.9 °C
- ΔDenaturation Temp. ([2]; CaCl2 0.03 mM vs 0 mM): 9.4 °C
- Denaturation Temp. ([2]; CaCl2 0.3 mM): 53.9 °C
- ΔDenaturation Temp. ([2]; CaCl2 0.3 mM vs 0 mM): 10.4 °C
- Denaturation Temp. ([2]; CaCl2 0.5 mM): 56.9 °C
- ΔDenaturation Temp. ([2]; CaCl2 0.5 mM vs 0 mM): 13.4 °C
- Denaturation Temp. ([2]; CaCl2 1.0 mM): 57.9 °C
- ΔDenaturation Temp. ([2]; CaCl2 1.0 mM vs 0 mM): 14.4 °C
- Denaturation Temp. ([2]; CaCl2 2.5 mM): 60.6 °C
- ΔDenaturation Temp. ([2]; CaCl2 2.5 mM vs 0 mM): 17.1 °C
- Denaturation Temp. ([2]; CaCl2 5.0 mM): 61.5 °C
- ΔDenaturation Temp. ([2]; CaCl2 5.0 mM vs 0 mM): 18.0 °C
- Denaturation Temp. ([2]; CaCl2 10.0 mM): 63.3 °C
- ΔDenaturation Temp. ([2]; CaCl2 10.0 mM vs 0 mM): 19.8 °C
- Denaturation Temp. ([2]; CaCl2 25.0 mM): 64.6 °C
- ΔDenaturation Temp. ([2]; CaCl2 25.0 mM vs 0 mM): 21.1 °C
- Denaturation Temp. ([2]; CaCl2 50.0 mM): 65.6 °C
- ΔDenaturation Temp. ([2]; CaCl2 50.0 mM vs 0 mM): 22.1 °C
- Denaturation Temp. ([2]; CaCl2 100.0 mM): 65.2 °C
- ΔDenaturation Temp. ([2]; CaCl2 100.0 mM vs 0 mM): 21.7 °C
- stability in the presence of CaCl2 relative to NaCl ([2]; equivalent ionic strength): significantly greater stability
